Test results as given in the supplement of paper PMC10567573.

Assay: protein stability index of a GFP-peptide fusion (GPS, HEK-293T) (PSI 1-6); higher = more stable
Settings: c terminus: native
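Note: lentivirally expressed fusion library, cells FACS-sorted into six equal-sized GFP/DsRed ratio bins, PSI computed from sequencing read fractions per bin weighted by bin number.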

## LPALFTDLYSQEITAEEAREALPC [SNF8 addC]
parent: NP_009172.2
  protein stability index: 3.81

## DGWIRVSSDNVADLHEKYSGSTPC [PSMB5 addC]
parent: NP_002788.1
  protein stability index: 2.89

## EQRNSRWNTVLRAVKAKTHHLEPC [TRPA1 addC]
parent: NP_015628.1
  protein stability index: 4.32

## CQPISFSGFGAEDDDLGGLGLGPC [POLD2 addC]
parent: NP_006221.1
  protein stability index: 2.27

## HSLRAVSTDPPHHDHHDEFCLMPC [BEX2 addC]
parent: NP_116010.1
  protein stability index: 3.48
